These results are taken from patent US20040191910, “Genes encoding plant transcription factors” (International Research Center for Agricultural Sciences, published 2004).

The target in this series is OsDREB2A (Oryza sativa, UniProt A2WL19 SEQ:1-163). Nature of the series: EMSA; room temperature 20 min, 5% PAGE 0.25x TBE. Particulars: tags: N-terminal GST (pGEX-4T-1), cDNA nt 334-822; label: 32P. The protocol: The E. coli into which the protein had been induced was suspended in 18 ml of buffer (10 mM Tris-HCl, pH 8.0, 0.1 mM EDTA, 5 mM MgCl₂, 400 mM NaCl, 5% glycerol, 0.1 mM phenylmethylsulfonyl fluoride, 0.1 mM dithiothreitol). Then, 1% Triton X-100 and 1 mM EDTA were added thereto. After the cells were disrupted by sonication, the disrupted material was centrifuged at 20,000 g for 1 hour. Then, the protein was purified from the supernatant using glutathione-Sepharose (Pharmacia). The resultant fusion protein was incubated at room temperature for 20 minutes using the DRE sequence-containing 75 bp DNA fragment (SEQ ID NO: 16) labeled with ³²P as a probe. This mixture was electrophoresed using 5% polyacrylamide containing 0.25×Tris-borate-EDTA at 120 V for 90 minutes. As a result of this gel shift assay, those bands which migrated to the back were detected. When the DNA fragment containing the mutated DRE sequence was used as a probe, such bands were not detected. Thus, it became evident that OsDREB1A and OsDREB2A proteins specifically bind to the DRE sequence (FIG. 4).
Sequence of OsDREB2A (A2WL19 1-163): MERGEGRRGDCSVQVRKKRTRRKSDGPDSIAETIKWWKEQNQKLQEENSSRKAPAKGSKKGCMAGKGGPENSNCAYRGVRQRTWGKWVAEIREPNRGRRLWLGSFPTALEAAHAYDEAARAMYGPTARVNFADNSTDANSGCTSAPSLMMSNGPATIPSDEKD
Background: In EMSA bound probe runs differently from free probe, usually more slowly.

B1: DRE 75 bp fragment of rd29A promoter (dsDNA)
DNA 1: ACATCAGTTTGAAAGAAAAGGGAAAAAAAGAAAAAATAAATAAAAGATATACTACCGACATGAGTTCCAAAAAGC
DNA 2: GCTTTTTGGAACTCATGTCGGTAGTATATCTTTTATTTATTTTTTCTTTTTTTCCCTTTTCTTTCAAACTGATGT
As to B1, the binding result is listed as “binds”.
